# ± gives the uncertainty stated by the source.
# Assay: amyloid nucleation score (Sup35N fusion, yeast selection) (log enrichment); library NNK2; higher = more nucleation; inactive = no reads after selection
# Summary of the method: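 Sup35N was fused to peptides of 20 random codons and expressed in psi-negative yeast, which were induced with 100 μM copper sulfate for 24 hours and then grown on medium lacking adenine and uracil for 7 days at 30°C. Plasmid inserts from input and output were sequenced on Illumina. The nucleation score is the DiMSum log enrichment of output over input reads, centred on the mode score of non-aggregating sequences. Sequences with under 100 input reads were left out, and random libraries had three technical output replicates.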
row,Substance,amyloid nucleation score
1,HLSRFKWKHLFLNTVLTFAV,inactive
2,LSGAPRLILRVNLWDTFDVQ,4 ± 0.046
3,IFRSMFILTYPGSRYNDEYL,4.13 ± 0.061
4,YDLSLVWWSTMFFRLCSLGC,-0.601 ± 0.41
5,GCLLRCDKRGGLRPSW,0.66 ± 0.24
6,YLLGKSYF,-1.08 ± 0.36
7,FASLCTW,-0.211 ± 0.46
8,VTVMTRLDFSTRSSATKPHG,5.667 ± 0.044
9,YVDTRLKTSVLFRK,3.93 ± 0.043
10,ARYISCRKEFRYLESA,0.069 ± 0.37
11,LFIRSIRPMDVVGVTLSAVE,0.764 ± 0.41
12,YDGSVKMGVFCGVRVYAPVS,-0.191 ± 1.1
13,WGNNSYSPFASKYAVSQDMD,-0.902 ± 0.62
14,ALNYVSCWNALRKFRESVAH,inactive
15,SGNGTVRSEYTRYCCLKGEM,0.822 ± 0.3
16,NASVHPMFL,-0.24 ± 0.48
17,PHDGMHINT,1.53 ± 0.31
18,AYFRLWVRAWTLASGE,0.938 ± 0.2
19,FVYKTGYVSSVCYGIVVVVD,-0.826 ± 0.5
20,QIFFWSSFN,inactive
21,DVEHPLYWPEDVLKASSETV,1.91 ± 0.12
22,HKGCIIVWKTKRGLCRSARC,-0.384 ± 0.79
23,FWQVCPLYRSSCIGSGCCIK,1.78 ± 0.17
24,YSVLTLED,0.374 ± 0.29
25,GECRRWKFGLWENVPDMSIK,0.177 ± 0.48

row,Substance,amyloid nucleation score
1,LCKVCSMITVGSGSGSVYSQ,inactive
2,MDFGVLARSNLYIIYYLCLR,inactive
3,YLASNLEDKWVWDGFMLVSR,0.356 ± 0.74
4,SCGRMMTVVMIWGNWRSWSS,-0.439 ± 0.76
5,IVLLPWSCEM,1.26 ± 0.19
6,REAAVHRLIAWIGFRCRCQV,-0.317 ± 1.1
7,VSSTSLNSKDQWCCCERGSP,0.619 ± 0.64
8,LFLLIIFLCTTYVVIKDPTH,2.73 ± 0.12
9,NVSVGVPLQRTILLDLCTGT,inactive
10,MSWVVIQFTINIFRHKTF,3.47 ± 0.11
11,STTVTLGQSICFYLSCGLRD,9.214 ± 0.051
12,KLIYLGGSSEFGTHFSA,-0.429 ± 0.61
13,QFDTPNTT,-0.169 ± 0.54
14,SGQKFN,0.015 ± 0.76
15,VCFML,0.94 ± 0.52
16,LDDPGLK,0.76 ± 0.14
17,DSGLVLNAGIIGSV,-1.11 ± 0.49
18,LFVALVGDLFCCWVCGSYGV,-1.43 ± 0.78
19,VYYLVCGL,0.147 ± 0.38
20,YSTTDHKWSRNLGIIMVVMW,0.185 ± 0.48
21,KLFRQQCDS,0.247 ± 0.8
22,AEWLINGISDGLDCVSFSNS,inactive
23,VWMDIRSYLVGGLLTAVPRD,0.481 ± 0.2
24,NASLYVSYGM,1.5 ± 0.39
25,IGRSMGRTFWR,1.5 ± 0.18

row,Substance,amyloid nucleation score
1,SSRQTVGNTPASDLLRDYCW,0.388 ± 0.38
2,LWLKEVYRWMIGGTRYL,-0.618 ± 0.76
3,KCKRLVSKNIRL,-0.342 ± 1
4,AGVCCSVSNILWKCTSSSNG,9.932 ± 0.023
5,TMHYYLWDSN,4.88 ± 0.1
6,ACILSVYFS,2.12 ± 0.15
7,NWKWVRSKVAWPMRSEHHVE,1.65 ± 0.21
8,SSANDNLNTERDQARLVTRC,-0.013 ± 0.36
9,KFMHRWPVYMVSTGLSLIVW,-0.458 ± 0.41
10,LSNLGTNYR,inactive
11,PINKGKWCSTNFNAGITRI,-0.01 ± 0.61
12,SFPAGICPLMRLVYVNMGVG,-0.683 ± 1.1
13,FYCYNFFWFL,6.085 ± 0.033
14,YFNPI,5.196 ± 0.047
15,VGRIEGHFYRSDCRQTYLYQ,-0.785 ± 0.74
16,GLNCTIV,1.67 ± 0.32
17,DNMWV,0.388 ± 0.54
18,TIGANPRVLDG,0.316 ± 0.39
19,CPSWSSLLISPYYYSSVSHK,-0.443 ± 0.79
20,YNPSYLMELNEV,-0.376 ± 0.55
21,LRFNSNHPHFRGHLYSAVQR,3.7 ± 0.15
22,YETCSFKNPTFFPRNLYKMW,-0.103 ± 0.46
23,SHLALTY,0.14 ± 0.25
24,IIYYIMVTFWYSVYQPFRSF,-0.081 ± 0.79
25,RSYFSDFH,inactive

row,Substance,amyloid nucleation score
1,RRGNLGDAMNNMARFCSYSF,inactive
2,VKGVLPVLWMGFNKQHFINH,0.602 ± 0.81
3,GSCRHHRWGLVRGMFCVSAL,1.17 ± 0.42
4,DMGVFSLLDNK,0.579 ± 0.66
5,FAFWGVSI,0.332 ± 0.24
6,TKFMIYRDYSLVKSHH,inactive
7,DICAIIVHWCDDLNVAYWYL,0.058 ± 1
8,RNITVTIFCLTAHRA,9.317 ± 0.054
9,SHGFFMAVEGLNCVRFVIIL,inactive
10,LVLLVPGKLMCF,4.12 ± 0.081
11,FCVAGQLLVS,0.228 ± 0.25
12,YHLLGALYNDAWVIWETTVL,-0.116 ± 0.76
13,VMWDNVLSVLLVSGRVAFPM,2.87 ± 0.099
14,AVWAEEGMPLMLGACRRTWG,1.25 ± 0.26
15,YFGSIIIYRIPAVPQILSVN,inactive
16,ASLSAFWSLTIVRVLPDKQV,0.722 ± 0.43
17,CVMGPAT,1.02 ± 0.3
18,YISFVGW,-2.23 ± 0.62
19,IPFLLTHDEHAAGCPAMKSY,0.223 ± 0.33
20,VVWWGVNR,0.091 ± 0.38
21,SCYFLFGHDG,-0.517 ± 0.49
22,MSNARRFSMNDSYNIVLCWE,-0.111 ± 0.63
23,TLSCKFIKGWLIQQYSHNKD,-0.187 ± 0.76
24,LHVHLGSEGPLHNKIVDAAK,-0.168 ± 0.42
25,NSLLNFVFSVYVKACIIPYT,inactive

row,Substance,amyloid nucleation score
1,LSSTFLNFA,inactive
2,MEDHF,3.69 ± 0.11
3,GNRDF,inactive
4,LGLCHMLLSDAGWRVRCRGK,0.276 ± 1
5,FVCGGILFLLCFLE,2.56 ± 0.12
6,ISTIWFRLQTGARKTRLLFD,-0.735 ± 0.79
7,RHLDSDPRIRKPHFGDPVNT,-0.144 ± 0.55
8,FGMFGSSYYIMY,2.63 ± 0.093
9,FAMNSVSFSAGNFTDSVPWW,-0.666 ± 0.63
10,LTFNLLSTLTFVRVLVPPLA,0.803 ± 0.34
11,ASAAYWASVHICPNLSKRKL,0.328 ± 0.65
12,HWLNLCP,-0.512 ± 0.48
13,MACKGLSLCFVWVLENKRRS,0.454 ± 0.23
14,IFASSYVLSHYILGGHRSRK,2.7 ± 0.1
15,FCTHPSFGTVMGMRAETGLD,0.516 ± 0.81
16,VWKVVKIRAL,inactive
17,LSEGCSLSTSVSMT,-0.392 ± 0.44
18,VDETNAKL,0.785 ± 0.3
19,TSFNQELEFFLCGGDVDCNR,-1.17 ± 1.1
20,KYERYLNRFSLLLRTAMVHR,-0.362 ± 0.29
21,ISSHVSCKSAFEAS,0.395 ± 0.64
22,DDLGMTFRLG,-0.337 ± 0.79
23,CCFRKWSSTAHRRFPCWREL,0.255 ± 0.54
24,HRYISNISKYESKNWRVPVG,inactive
25,KGQVLWTLGCMSIFVSMTNM,5.58 ± 0.078

row,Substance,amyloid nucleation score
1,NSTLGGVFACYYFALSHAAE,6.41 ± 0.059
2,NVCIKLARCVVGLNLRFRGS,-0.347 ± 0.79
3,WFAKRW,inactive
4,LTLAS,0.49 ± 0.25
5,ITEYSYWSGIPSSMVSPIKH,-0.459 ± 0.28
6,FCRWSVTFNFRSMIGPGS,5.344 ± 0.035
7,FMVWWFTIRVPEDCYQP,-0.5 ± 0.39
8,QFAHFKNLWVFVLSCRWLPT,-0.158 ± 0.35
9,NIRSHKGIVLVG,inactive
10,VLALYYINSATLILFLIFKS,-1.16 ± 1.1
11,SPIYYIKGYFLLISKCFADR,4.56 ± 0.073
12,YQGSLGSDMAISKLFDSDYE,-0.656 ± 1.1
13,GGGNCKKGYGCDVDCYESEG,-0.735 ± 0.56
14,EEMYRSIARNVVVLNRYCES,-0.468 ± 0.26
15,ILAQNCSFYLGVTLRIARRH,1.21 ± 0.43
16,NDCSGKDVVILQQE,0.192 ± 1
17,KVQNWMLNTHGFYSLRGFDQ,-0.857 ± 0.41
18,RRDNPWLSHVIW,1.06 ± 0.33
19,FILSQWYKGSECTTCRRLWG,-0.318 ± 0.4
20,SKVLKRACYGAAGPFRIVHV,3.29 ± 0.082
21,QLVFYSNFVSKDVNVDLQWL,5.75 ± 0.062
22,VWGFVSGIESMCGSKAPNGG,-0.158 ± 0.33
23,HFIFVAYRWVSNNAELDLNF,-0.724 ± 0.63
24,KMSELWFVIKPWFWIMGLEK,-0.403 ± 1.1
25,CTILVILSKVSYCQYPWEHV,1.52 ± 0.14

row,Substance,amyloid nucleation score
1,HSNALCLRFVLLPLSGIDIM,-0.295 ± 0.54
2,LCYHLYTRVITCFLLIDLVC,-0.27 ± 1.1
3,YGLGKTVFTTDGPGMLNGQA,1.18 ± 0.47
4,EVEWAFTYHISL,-0.095 ± 0.39
5,NFCPLPLVRCIECLRTMDGV,inactive
6,MWIHYKVFRCWTVRAEKVTG,4.29 ± 0.083
7,LLIVNCMLANYSFWIQSSGS,5.968 ± 0.029
8,PLWVEGFMCSNGMCILGRSG,1.77 ± 0.14
9,HVVVDCISNCEFTCMWCSAY,5.57 ± 0.06
10,WSYLVLSPMRRNRVRMVHII,-0.517 ± 0.63
11,RSCATFIFVMS,4.98 ± 0.073
12,SLCLLIALSRWSIAS,1.14 ± 0.3
13,LRSVKMIRCLNSSLPLNGRG,0.735 ± 0.12
14,IRCSVVDLCESSADSTSVRP,inactive
15,QLYLTVTNGFVRCTTASDVL,1.14 ± 0.47
16,SLVVPDRYVNARYCNCCYGG,0.43 ± 0.65
17,ALGVGVDFVKVWRNRGLAGG,0.459 ± 0.51
18,WCSNR,0.153 ± 0.45
19,IPMSRGVQF,0.82 ± 0.14
20,QICHHIDYVFRCHDI,0.585 ± 0.8
21,LYFSNPWFMIKSRDMFVCIG,0.51 ± 0.18
22,IRVSLFYPSG,3.89 ± 0.051
23,IMTHLVSTR,1.5 ± 0.3
